Measurements published in US20220331457A1 (TELIX INTERNATIONAL, published 2022).

Columns and labels:
[1] = target: T1, human carbonic anhydrase IX (CAIX) (human, UniProt Q16790 38-414); experiment: competition ELISA on coated CAIX; competitor: biotinylated chimeric Girentuximab IgG1
Description: CAIX was diluted in 1×PBS to 0.5 μg/ml and 100 μl/well was coated overnight at 4° C. on a 96-well ELISA plate. The following day, the plate was washed 3× with 1×PBS/0.05% Tween (PBST) and blocked with 200 μl of 2% BSA/PBS for one hour at room temperature.
After washing the plate 3× with PBS-T, 100 μl of chimeric/test antibody mix was added to the ELISA plate.
For colour development, the plate was washed 3× with PBS-T following which 100 μl of TMB substrate was added and incubated for approximately five minutes at room temperature. The reaction was stopped with 50 μl of 3.0 M hydrochloric acid and absorbance was read immediately using a Dynex plate reader at 450 nm.

[2] = target: T1, human carbonic anhydrase IX (CAIX); experiment: SPR (Biacore T200), multicycle kinetics; purified antibody captured on Protein G chip, CAIX as analyte
Description: (§1) The purified antibodies were diluted to a concentration of 1 μg/ml in HBS-P+. […] Following capture, the surface was allowed to stabilise. Kinetic data was obtained using a flow rate of 30 μl/min to minimise any potential mass transfer effects. For the kinetics analysis, carbonic anhydrase IX (CAIX) was used. Multiple repeats of the blank (CAIX) and a repeat of a single concentration of the analyte were programmed into the kinetic run in order to check the stability of both the surface and analyte over the kinetic cycles. For kinetic analysis, a two-fold dilution range was selected from 50 nM to 0.078 nM CAIX. The association phase of CAIX was monitored for 280 seconds and the dissociation phase was monitored for 300 seconds. Regeneration of the Protein G surface was conducted using an injection of 10 mM glycine-HCL pH 1.5 followed by an injection of 10 mM glycine-HCL pH 1.5 containing 0.5% P20. The signal from the reference channel Fc1 was subtracted from that of Fc2, Fc3 and Fc4 to correct for differences in non-specific binding to a reference surface, and a global Rmax parameter was used in the 1-to-1 binding model. The relative KD was calculated by dividing the KD of the humanised variants by that of the chimeric antibody on the same chip.

[3] = target: T1, human carbonic anhydrase IX (CAIX); experiment: Biacore multicycle kinetic analysis (conclusion of Example 1)
Description: as §1

[4] = target: T1, human carbonic anhydrase IX (CAIX); experiment: Biacore multicycle analysis and competition ELISA (conclusion of Example 1)
[5] = target: T1, human carbonic anhydrase IX (CAIX); experiment: SPR (Biacore T200), multicycle kinetics; purified CHO-expressed antibody captured on Protein G chip, CAIX as analyte
Description: as §1

[6] = target: T1, human carbonic anhydrase IX (CAIX); experiment: SPR (Biacore T200), single cycle kinetics; antibody in HEK EBNA supernatant captured on Protein G chip, CAIX as analyte
Description: All single cycle kinetic experiments were run at 25° C. with HBS-P+ running buffer (pH 7.4) (GE Healthcare, Little Chalfont, UK). For direct comparison, all antibodies were captured on a Protein G chip (GE Healthcare, Uppsala, Sweden).
Antibodies were diluted in running buffer to a final concentration of 0.5 μg/ml, based on concentrations assessed by ELISA titre. At the start of each cycle, antibodies were loaded onto Fc2, Fc3 and Fc4 of the Protein G chip (GE Healthcare, Little Chalfont, UK). IgGs were captured at a flow rate of 10 μl/min to give an immobilisation level (RL) of ˜79 RU, the theoretical value to obtain an Rmax of ˜50 RU. The surface was then allowed to stabilise. Single cycle kinetic data was obtained with Carbonic Anhydrase IX (CAIX, Stratech, Newmarket, UK) as the analyte at a flow rate of 30 μl/min to minimise any potential mass transport limitations. […] The signal from the reference channel Fc1 (no antibody) was subtracted from that of Fc2, Fc3 and Fc4 to correct for differences in non-specific binding to a reference surface. […] The association phase for the four injections of increasing concentrations of CAIX was monitored for 200 seconds each time and a single dissociation phase was measured for 300 seconds following the last injection of CAIX. Regeneration of the Protein G surface was conducted using an injection of 10 mM glycine-HCL pH 1.5 followed by an injection of 10 mM glycine-HCL pH 1.5 containing 0.5% P20.

B1: Chimeric Girentuximab (VH0/Vκ0) IgG1 (H310A, H435Q) (antibody)
heavy: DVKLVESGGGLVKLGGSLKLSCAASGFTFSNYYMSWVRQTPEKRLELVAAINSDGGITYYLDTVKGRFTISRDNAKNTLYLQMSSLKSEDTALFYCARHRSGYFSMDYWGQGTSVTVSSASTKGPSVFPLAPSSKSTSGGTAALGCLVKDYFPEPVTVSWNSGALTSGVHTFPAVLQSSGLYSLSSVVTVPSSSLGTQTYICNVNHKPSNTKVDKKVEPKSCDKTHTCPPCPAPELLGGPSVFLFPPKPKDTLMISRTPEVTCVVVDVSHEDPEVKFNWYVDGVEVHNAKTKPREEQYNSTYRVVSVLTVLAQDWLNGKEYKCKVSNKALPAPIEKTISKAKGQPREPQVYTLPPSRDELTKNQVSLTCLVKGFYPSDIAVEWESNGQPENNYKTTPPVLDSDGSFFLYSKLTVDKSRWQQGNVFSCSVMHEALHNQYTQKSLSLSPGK
light: DIVMTQSQRFMSTTVGDRVSITCKASQNVVSAVAWYQQKPGQSPKLLIYSASNRYTGVPDRFTGSGSGTDFTLTISNMQSEDLADFFCQQYSNYPWTFGGGTKLEIKRTVAAPSVFIFPPSDEQLKSGTASVVCLLNNFYPREAKVQWKVDNALQSGNSQESVTEQDSKDSTYSLSSTLTLSKADYEKHKVYACEVTHQGLSSPVTKSFNRGEC
notes: Chimeric antibody on the FcRn-null IgG1 backbone; also called chimeric IgG1 (H310A, H435Q)
≤ 2 fold: relative IC50 (IC50 of the variant divided by IC50 of the Girentuximab chimeric IgG1 antibody on the same plate) [1] | relative KD (KD of the variant divided by KD of the chimeric antibody on the same chip) [2]

B2: Chimeric Girentuximab (VH0/Vκ0) IgG4 (S228P, L235E, H310A, H435Q) (antibody)
heavy: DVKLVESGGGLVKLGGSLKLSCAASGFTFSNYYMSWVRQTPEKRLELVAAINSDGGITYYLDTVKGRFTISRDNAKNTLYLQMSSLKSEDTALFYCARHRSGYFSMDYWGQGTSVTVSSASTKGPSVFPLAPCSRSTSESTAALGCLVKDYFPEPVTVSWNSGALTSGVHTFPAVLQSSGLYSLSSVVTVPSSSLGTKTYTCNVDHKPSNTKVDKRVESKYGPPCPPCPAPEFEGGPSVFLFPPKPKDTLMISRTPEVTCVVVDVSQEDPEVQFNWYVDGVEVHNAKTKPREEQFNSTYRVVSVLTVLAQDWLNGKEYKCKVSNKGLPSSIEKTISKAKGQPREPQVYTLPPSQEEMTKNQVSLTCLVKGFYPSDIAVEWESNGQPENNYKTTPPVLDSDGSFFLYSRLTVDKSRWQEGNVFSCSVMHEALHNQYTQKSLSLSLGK
light: DIVMTQSQRFMSTTVGDRVSITCKASQNVVSAVAWYQQKPGQSPKLLIYSASNRYTGVPDRFTGSGSGTDFTLTISNMQSEDLADFFCQQYSNYPWTFGGGTKLEIKRTVAAPSVFIFPPSDEQLKSGTASVVCLLNNFYPREAKVQWKVDNALQSGNSQESVTEQDSKDSTYSLSSTLTLSKADYEKHKVYACEVTHQGLSSPVTKSFNRGEC
notes: Chimeric antibody on the FcRn- and FcRγ-null IgG4 backbone; also called chimeric IgG4 (S228P, L235E, H310A, H435Q)
≤ 2 fold: relative IC50 (IC50 of the variant divided by IC50 of the Girentuximab chimeric IgG1 antibody on the same plate) [1] | relative KD (KD of the variant divided by KD of the chimeric antibody on the same chip) [2]

B3: Girentuximab humanised VH4/Vκ3 IgG1 (antibody)
heavy: not shown
light: DIQMTQSPSSLSASVGDRVTITCKASQNVVSAVAWYQQKPGQAPRLLIYSASNRYTGVPDRFSGSGSGTDFTLTISSLQAEDLADYFCQQYSNYPWTFGGGTKVEIKRTVAAPSVFIFPPSDEQLKSGTASVVCLLNNFYPREAKVQWKVDNALQSGNSQESVTEQDSKDSTYSLSSTLTLSKADYEKHKVYACEVTHQGLSSPVTKSFNRGEC
≤ 2 fold: binding relative to VH0/Vκ0 with the same IgG backbone [3] | binding relative to the IgG1 chimeric antibody [4] | relative IC50 (IC50 of the variant divided by IC50 of the Girentuximab chimeric IgG1 antibody on the same plate) [1] | relative KD (KD of the variant divided by KD of the chimeric antibody on the same chip) [2] | relative KD (KD of the variant divided by KD of the chimeric antibody with the same IgG constant domain) [5] | relative KD (against the reference chimeric VH0/Vκ0 IgG1) [6]

B4: Girentuximab humanised VH4/Vκ4 IgG4 (S228P, L235E, H310A, H435Q) (antibody)
heavy: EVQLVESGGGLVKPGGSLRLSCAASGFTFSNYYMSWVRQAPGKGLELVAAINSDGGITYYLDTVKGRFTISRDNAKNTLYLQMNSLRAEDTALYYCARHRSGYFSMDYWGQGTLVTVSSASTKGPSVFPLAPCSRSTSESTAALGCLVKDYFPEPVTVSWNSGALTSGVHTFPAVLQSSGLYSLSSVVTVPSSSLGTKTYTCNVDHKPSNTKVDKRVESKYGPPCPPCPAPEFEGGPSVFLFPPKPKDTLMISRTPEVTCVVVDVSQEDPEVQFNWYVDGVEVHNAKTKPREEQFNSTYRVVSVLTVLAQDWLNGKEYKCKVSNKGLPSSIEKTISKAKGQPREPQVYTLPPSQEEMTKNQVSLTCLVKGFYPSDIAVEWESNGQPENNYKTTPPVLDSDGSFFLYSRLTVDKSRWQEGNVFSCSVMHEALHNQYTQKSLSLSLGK
light: DIQMTQSPSSLSASVGDRVTITCKASQNVVSAVAWYQQKPGQAPRLLIYSASNRYTGVPDRFSGSGSGTDFTLTISSLQAEDLADYYCQQYSNYPWTFGGGTKVEIKRTVAAPSVFIFPPSDEQLKSGTASVVCLLNNFYPREAKVQWKVDNALQSGNSQESVTEQDSKDSTYSLSSTLTLSKADYEKHKVYACEVTHQGLSSPVTKSFNRGEC
≤ 2 fold: binding relative to VH0/Vκ0 with the same IgG backbone [3] | relative KD (KD of the variant divided by KD of the chimeric antibody with the same IgG constant domain) [5]

B5: Girentuximab humanised VH3/Vκ4 IgG4 (S228P, L235E, H310A, H435Q) (antibody)
heavy: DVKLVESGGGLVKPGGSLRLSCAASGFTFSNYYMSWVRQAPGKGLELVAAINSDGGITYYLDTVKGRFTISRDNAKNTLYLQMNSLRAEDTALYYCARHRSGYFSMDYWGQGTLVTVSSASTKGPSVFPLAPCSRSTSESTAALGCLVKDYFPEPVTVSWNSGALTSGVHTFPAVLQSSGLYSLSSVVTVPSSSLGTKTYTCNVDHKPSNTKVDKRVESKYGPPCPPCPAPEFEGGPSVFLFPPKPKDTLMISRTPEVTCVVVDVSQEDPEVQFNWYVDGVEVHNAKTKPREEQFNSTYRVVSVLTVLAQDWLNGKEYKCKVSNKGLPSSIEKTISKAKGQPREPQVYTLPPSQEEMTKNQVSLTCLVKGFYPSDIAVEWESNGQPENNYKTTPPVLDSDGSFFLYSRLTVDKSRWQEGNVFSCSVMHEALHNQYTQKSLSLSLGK
light: DIQMTQSPSSLSASVGDRVTITCKASQNVVSAVAWYQQKPGQAPRLLIYSASNRYTGVPDRFSGSGSGTDFTLTISSLQAEDLADYYCQQYSNYPWTFGGGTKVEIKRTVAAPSVFIFPPSDEQLKSGTASVVCLLNNFYPREAKVQWKVDNALQSGNSQESVTEQDSKDSTYSLSSTLTLSKADYEKHKVYACEVTHQGLSSPVTKSFNRGEC
≤ 2 fold: binding relative to VH0/Vκ0 with the same IgG backbone [3] | relative KD (KD of the variant divided by KD of the chimeric antibody with the same IgG constant domain) [5]

B6: Girentuximab humanised VH3/Vκ3 IgG1 (antibody)
heavy: not shown
light: DIQMTQSPSSLSASVGDRVTITCKASQNVVSAVAWYQQKPGQAPRLLIYSASNRYTGVPDRFSGSGSGTDFTLTISSLQAEDLADYFCQQYSNYPWTFGGGTKVEIKRTVAAPSVFIFPPSDEQLKSGTASVVCLLNNFYPREAKVQWKVDNALQSGNSQESVTEQDSKDSTYSLSSTLTLSKADYEKHKVYACEVTHQGLSSPVTKSFNRGEC
≤ 2 fold: binding relative to the IgG1 chimeric antibody [4] | relative IC50 (IC50 of the variant divided by IC50 of the Girentuximab chimeric IgG1 antibody on the same plate) [1] | relative KD (KD of the variant divided by KD of the chimeric antibody on the same chip) [2] | relative KD (against the reference chimeric VH0/Vκ0 IgG1) [6]

B7: Girentuximab humanised VH4/Vκ4 IgG1 (antibody)
heavy: not shown
light: DIQMTQSPSSLSASVGDRVTITCKASQNVVSAVAWYQQKPGQAPRLLIYSASNRYTGVPDRFSGSGSGTDFTLTISSLQAEDLADYYCQQYSNYPWTFGGGTKVEIKRTVAAPSVFIFPPSDEQLKSGTASVVCLLNNFYPREAKVQWKVDNALQSGNSQESVTEQDSKDSTYSLSSTLTLSKADYEKHKVYACEVTHQGLSSPVTKSFNRGEC
≤ 2 fold: binding relative to VH0/Vκ0 with the same IgG backbone [3] | binding relative to the IgG1 chimeric antibody [4] | relative IC50 (IC50 of the variant divided by IC50 of the Girentuximab chimeric IgG1 antibody on the same plate) [1] | relative KD (KD of the variant divided by KD of the chimeric antibody on the same chip) [2] | relative KD (KD of the variant divided by KD of the chimeric antibody with the same IgG constant domain) [5] | relative KD (against the reference chimeric VH0/Vκ0 IgG1) [6]

B8: Girentuximab humanised VH4/Vκ2 IgG1 (antibody)
heavy: not shown
light: DIVMTQSPSSLSASVGDRVTITCKASQNVVSAVAWYQQKPGQAPRLLIYSASNRYTGVPDRFTGSGSGTDFTLTISSLQAEDLADYFCQQYSNYPWTFGGGTKVEIKRTVAAPSVFIFPPSDEQLKSGTASVVCLLNNFYPREAKVQWKVDNALQSGNSQESVTEQDSKDSTYSLSSTLTLSKADYEKHKVYACEVTHQGLSSPVTKSFNRGEC
≤ 2 fold: binding relative to the IgG1 chimeric antibody [4] | relative IC50 (IC50 of the variant divided by IC50 of the Girentuximab chimeric IgG1 antibody on the same plate) [1] | relative KD (KD of the variant divided by KD of the chimeric antibody on the same chip) [2] | relative KD (against the reference chimeric VH0/Vκ0 IgG1) [6]

B9: Girentuximab humanised VH4/Vκ3 IgG1 (H310A, H435Q) (antibody)
heavy: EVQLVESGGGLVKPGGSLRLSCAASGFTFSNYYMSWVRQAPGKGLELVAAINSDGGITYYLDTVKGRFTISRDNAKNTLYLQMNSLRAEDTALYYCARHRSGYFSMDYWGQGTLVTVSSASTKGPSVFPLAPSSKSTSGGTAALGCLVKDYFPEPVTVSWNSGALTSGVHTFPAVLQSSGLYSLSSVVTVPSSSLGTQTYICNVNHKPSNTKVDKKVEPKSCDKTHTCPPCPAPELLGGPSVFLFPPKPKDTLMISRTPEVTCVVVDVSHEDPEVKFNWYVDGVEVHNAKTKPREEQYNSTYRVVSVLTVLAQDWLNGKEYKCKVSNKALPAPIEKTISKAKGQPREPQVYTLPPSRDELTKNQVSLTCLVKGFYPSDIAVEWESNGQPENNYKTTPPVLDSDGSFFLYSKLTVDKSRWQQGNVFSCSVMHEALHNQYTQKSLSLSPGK
light: DIQMTQSPSSLSASVGDRVTITCKASQNVVSAVAWYQQKPGQAPRLLIYSASNRYTGVPDRFSGSGSGTDFTLTISSLQAEDLADYFCQQYSNYPWTFGGGTKVEIKRTVAAPSVFIFPPSDEQLKSGTASVVCLLNNFYPREAKVQWKVDNALQSGNSQESVTEQDSKDSTYSLSSTLTLSKADYEKHKVYACEVTHQGLSSPVTKSFNRGEC
≤ 2 fold: binding relative to VH0/Vκ0 with the same IgG backbone [3] | relative KD (KD of the variant divided by KD of the chimeric antibody with the same IgG constant domain) [5]

B10: Girentuximab humanised VH3/Vκ2 IgG1 (antibody)
heavy: not shown
light: DIVMTQSPSSLSASVGDRVTITCKASQNVVSAVAWYQQKPGQAPRLLIYSASNRYTGVPDRFTGSGSGTDFTLTISSLQAEDLADYFCQQYSNYPWTFGGGTKVEIKRTVAAPSVFIFPPSDEQLKSGTASVVCLLNNFYPREAKVQWKVDNALQSGNSQESVTEQDSKDSTYSLSSTLTLSKADYEKHKVYACEVTHQGLSSPVTKSFNRGEC
≤ 2 fold: binding relative to the IgG1 chimeric antibody [4] | relative IC50 (IC50 of the variant divided by IC50 of the Girentuximab chimeric IgG1 antibody on the same plate) [1] | relative KD (KD of the variant divided by KD of the chimeric antibody on the same chip) [2] | relative KD (against the reference chimeric VH0/Vκ0 IgG1) [6]

B11: Girentuximab humanised VH3/Vκ4 IgG1 (H310A, H435Q) (antibody)
heavy: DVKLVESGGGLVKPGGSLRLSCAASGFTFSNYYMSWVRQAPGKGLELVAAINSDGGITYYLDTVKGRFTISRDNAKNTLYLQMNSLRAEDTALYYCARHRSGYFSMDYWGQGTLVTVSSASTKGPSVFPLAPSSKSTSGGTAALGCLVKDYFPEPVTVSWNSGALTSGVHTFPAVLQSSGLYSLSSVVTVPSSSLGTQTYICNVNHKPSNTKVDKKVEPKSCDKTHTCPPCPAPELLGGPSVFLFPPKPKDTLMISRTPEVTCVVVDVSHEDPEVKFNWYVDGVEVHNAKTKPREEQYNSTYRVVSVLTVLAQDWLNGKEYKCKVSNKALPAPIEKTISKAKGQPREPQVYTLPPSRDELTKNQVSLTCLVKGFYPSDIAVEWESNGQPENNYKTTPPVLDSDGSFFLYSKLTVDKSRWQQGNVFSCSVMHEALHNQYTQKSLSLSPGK
light: DIQMTQSPSSLSASVGDRVTITCKASQNVVSAVAWYQQKPGQAPRLLIYSASNRYTGVPDRFSGSGSGTDFTLTISSLQAEDLADYYCQQYSNYPWTFGGGTKVEIKRTVAAPSVFIFPPSDEQLKSGTASVVCLLNNFYPREAKVQWKVDNALQSGNSQESVTEQDSKDSTYSLSSTLTLSKADYEKHKVYACEVTHQGLSSPVTKSFNRGEC
≤ 2 fold: binding relative to VH0/Vκ0 with the same IgG backbone [3] | relative KD (KD of the variant divided by KD of the chimeric antibody with the same IgG constant domain) [5]

B12: Girentuximab humanised VH4/Vκ4 IgG1 (H310A, H435Q) (antibody)
heavy: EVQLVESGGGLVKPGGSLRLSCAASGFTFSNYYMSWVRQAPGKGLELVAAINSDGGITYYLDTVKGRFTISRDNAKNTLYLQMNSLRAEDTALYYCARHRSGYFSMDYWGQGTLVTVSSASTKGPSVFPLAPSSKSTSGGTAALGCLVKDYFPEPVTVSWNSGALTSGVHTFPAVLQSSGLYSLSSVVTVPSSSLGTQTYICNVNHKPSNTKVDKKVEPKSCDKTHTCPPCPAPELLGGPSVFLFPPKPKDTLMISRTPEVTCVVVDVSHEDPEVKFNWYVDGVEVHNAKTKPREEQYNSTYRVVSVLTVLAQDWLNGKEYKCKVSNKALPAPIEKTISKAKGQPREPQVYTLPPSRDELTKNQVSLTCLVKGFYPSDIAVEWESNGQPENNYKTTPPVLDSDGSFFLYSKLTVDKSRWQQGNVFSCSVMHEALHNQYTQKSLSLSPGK
light: DIQMTQSPSSLSASVGDRVTITCKASQNVVSAVAWYQQKPGQAPRLLIYSASNRYTGVPDRFSGSGSGTDFTLTISSLQAEDLADYYCQQYSNYPWTFGGGTKVEIKRTVAAPSVFIFPPSDEQLKSGTASVVCLLNNFYPREAKVQWKVDNALQSGNSQESVTEQDSKDSTYSLSSTLTLSKADYEKHKVYACEVTHQGLSSPVTKSFNRGEC
≤ 2 fold: binding relative to VH0/Vκ0 with the same IgG backbone [3] | relative KD (KD of the variant divided by KD of the chimeric antibody with the same IgG constant domain) [5]

B13: Girentuximab humanised VH4/Vκ3 IgG4 (S228P, L235E, H310A, H435Q) (antibody)
heavy: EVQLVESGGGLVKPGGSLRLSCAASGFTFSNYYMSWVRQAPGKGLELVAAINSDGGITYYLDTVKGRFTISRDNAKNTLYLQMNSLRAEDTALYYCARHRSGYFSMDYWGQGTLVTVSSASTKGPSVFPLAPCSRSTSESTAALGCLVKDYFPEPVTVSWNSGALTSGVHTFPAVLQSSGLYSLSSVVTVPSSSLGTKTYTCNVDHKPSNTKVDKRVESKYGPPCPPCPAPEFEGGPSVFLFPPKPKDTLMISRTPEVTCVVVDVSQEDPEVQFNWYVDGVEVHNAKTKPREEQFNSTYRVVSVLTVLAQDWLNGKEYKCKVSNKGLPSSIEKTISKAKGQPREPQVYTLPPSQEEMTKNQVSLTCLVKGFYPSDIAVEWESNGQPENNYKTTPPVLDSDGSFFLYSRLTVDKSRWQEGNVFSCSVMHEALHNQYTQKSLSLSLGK
light: DIQMTQSPSSLSASVGDRVTITCKASQNVVSAVAWYQQKPGQAPRLLIYSASNRYTGVPDRFSGSGSGTDFTLTISSLQAEDLADYFCQQYSNYPWTFGGGTKVEIKRTVAAPSVFIFPPSDEQLKSGTASVVCLLNNFYPREAKVQWKVDNALQSGNSQESVTEQDSKDSTYSLSSTLTLSKADYEKHKVYACEVTHQGLSSPVTKSFNRGEC
≤ 2 fold: binding relative to VH0/Vκ0 with the same IgG backbone [3] | relative KD (KD of the variant divided by KD of the chimeric antibody with the same IgG constant domain) [5]

B14: Girentuximab humanised VH3/Vκ4 IgG1 (antibody)
heavy: not shown
light: DIQMTQSPSSLSASVGDRVTITCKASQNVVSAVAWYQQKPGQAPRLLIYSASNRYTGVPDRFSGSGSGTDFTLTISSLQAEDLADYYCQQYSNYPWTFGGGTKVEIKRTVAAPSVFIFPPSDEQLKSGTASVVCLLNNFYPREAKVQWKVDNALQSGNSQESVTEQDSKDSTYSLSSTLTLSKADYEKHKVYACEVTHQGLSSPVTKSFNRGEC
≤ 2 fold: binding relative to VH0/Vκ0 with the same IgG backbone [3] | binding relative to the IgG1 chimeric antibody [4] | relative IC50 (IC50 of the variant divided by IC50 of the Girentuximab chimeric IgG1 antibody on the same plate) [1] | relative KD (KD of the variant divided by KD of the chimeric antibody on the same chip) [2] | relative KD (KD of the variant divided by KD of the chimeric antibody with the same IgG constant domain) [5] | relative KD (against the reference chimeric VH0/Vκ0 IgG1) [6]
